From US20260356929 (published 2026)

T1: human VEGF-A165b (human, UniProt P15692)
T1 chain: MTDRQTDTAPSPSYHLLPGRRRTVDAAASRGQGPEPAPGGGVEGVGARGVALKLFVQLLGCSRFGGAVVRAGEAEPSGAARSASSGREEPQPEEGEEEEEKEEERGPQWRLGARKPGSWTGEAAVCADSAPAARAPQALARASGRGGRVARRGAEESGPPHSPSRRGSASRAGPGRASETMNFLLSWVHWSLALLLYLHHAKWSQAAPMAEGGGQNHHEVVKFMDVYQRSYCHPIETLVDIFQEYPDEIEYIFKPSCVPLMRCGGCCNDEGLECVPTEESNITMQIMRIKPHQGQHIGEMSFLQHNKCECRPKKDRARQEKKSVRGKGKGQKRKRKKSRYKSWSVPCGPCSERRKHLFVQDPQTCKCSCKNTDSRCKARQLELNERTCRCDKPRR

B1: HC0 LC0 (chimeric Ab 1126) (antibody, V domains shown)
VH: EVKLLESGGGLVQPGGSLKLSCAASGFDFSRYWMSWVRQAPGKGLEWIGEIHPYSSTINYTPSVKDKFIISRDNAKNTLYLQMSEVRSEDTALYYCARAFAYWGQGTLVTVSA
VL: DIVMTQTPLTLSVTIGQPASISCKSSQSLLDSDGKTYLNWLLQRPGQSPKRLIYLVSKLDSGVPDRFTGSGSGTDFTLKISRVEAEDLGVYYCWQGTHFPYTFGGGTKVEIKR
B2: HC3 LC1 (antibody, V domains shown)
VH: EVQLVESGGGLVQPGGSLRLSCAASGFDFSRYWMSWVRQAPGKGLEWISEIHPYSSTINYTPSVKDRFTISRDNAKNSLYLQMNSLRDEDTALYYCARAFAYWGQGTLVTVSS
VL: DVVMTQSPLSLPVTLGQPASISCKSSQSLLDSDGKTYLNWFQQRPGQSPRRLIYLVSKLDSGVPDRFSGSGSGTDFTLKISRVEAEDVGVYYCWQGTHFPYTFGGGTKVEIKR
B3: HC4 LC2 (Vexobicizumab) (antibody, V domains shown)
VH: EVQLVESGGGLVQPGGSLRLSCAASGFDFSRYWMSWVRQAPGKGLEWVAEIHPYSSTINYTPSVKDRFTISRDNAKNSLYLQMNSLRSEDTAVYYCARAFAYWGQGTLVTVSS
VL: DVVMTQSPLSLPVTLGQPASISCRSSQSLLDSDGKTYLNWELQRPGQSPRRLIYLVSKLDSGVPDRFSGSGSGTDFTLKISRVEAEDVGVYYCWQGTHFPYTFGQGTKVEIKR
B4: HC1 LC2 (antibody, V domains shown)
VH: EVQLLESGGGLVKPGGSLRLSCAASGFDFSRYWMSWIRQAPGKGLEWVSEIHPYSSTINYTPSVKDRFTISRDNAKNSLYLQMNSLRAEDTAVYYCARAFAYWGQGTLVTVSS
VL: DVVMTQSPLSLPVTLGQPASISCRSSQSLLDSDGKTYLNWELQRPGQSPRRLIYLVSKLDSGVPDRFSGSGSGTDFTLKISRVEAEDVGVYYCWQGTHFPYTFGQGTKVEIKR
B5: HC3 LC2 (antibody, V domains shown)
VH: EVQLVESGGGLVQPGGSLRLSCAASGFDFSRYWMSWVRQAPGKGLEWISEIHPYSSTINYTPSVKDRFTISRDNAKNSLYLQMNSLRDEDTALYYCARAFAYWGQGTLVTVSS
VL: DVVMTQSPLSLPVTLGQPASISCRSSQSLLDSDGKTYLNWELQRPGQSPRRLIYLVSKLDSGVPDRFSGSGSGTDFTLKISRVEAEDVGVYYCWQGTHFPYTFGQGTKVEIKR
B6: HC2 LC2 (antibody, V domains shown)
VH: EVQLVESGGGLVQPGGSLRLSCAASGFDFSRYWMSWVRQAPGKGLEWVAEIHPYSSTINYTPSVKDRFIISRDNAKNSVYLQLNSLRAEDTAVYYCARAFAYWGQGTLVTVSS
VL: DVVMTQSPLSLPVTLGQPASISCRSSQSLLDSDGKTYLNWELQRPGQSPRRLIYLVSKLDSGVPDRFSGSGSGTDFTLKISRVEAEDVGVYYCWQGTHFPYTFGQGTKVEIKR
B7: HC5 LC2 (antibody, V domains shown)
VH: EVQLVESGGGLVQPGGSLRLSCAASGFDFSRYWMSWVRQAPGKGLEWVSEIHPYSSTINYTPSVKDRFTISRDNAKNSLYLQMNSLRAEDTAVYYCARAFAYWGQGTLVTVSA
VL: DVVMTQSPLSLPVTLGQPASISCRSSQSLLDSDGKTYLNWELQRPGQSPRRLIYLVSKLDSGVPDRFSGSGSGTDFTLKISRVEAEDVGVYYCWQGTHFPYTFGQGTKVEIKR
B8: HC2 LC1 (antibody, V domains shown)
VH: EVQLVESGGGLVQPGGSLRLSCAASGFDFSRYWMSWVRQAPGKGLEWVAEIHPYSSTINYTPSVKDRFIISRDNAKNSVYLQLNSLRAEDTAVYYCARAFAYWGQGTLVTVSS
VL: DVVMTQSPLSLPVTLGQPASISCKSSQSLLDSDGKTYLNWFQQRPGQSPRRLIYLVSKLDSGVPDRFSGSGSGTDFTLKISRVEAEDVGVYYCWQGTHFPYTFGGGTKVEIKR
B9: HC4 LC1 (antibody, V domains shown)
VH: EVQLVESGGGLVQPGGSLRLSCAASGFDFSRYWMSWVRQAPGKGLEWVAEIHPYSSTINYTPSVKDRFTISRDNAKNSLYLQMNSLRSEDTAVYYCARAFAYWGQGTLVTVSS
VL: DVVMTQSPLSLPVTLGQPASISCKSSQSLLDSDGKTYLNWFQQRPGQSPRRLIYLVSKLDSGVPDRFSGSGSGTDFTLKISRVEAEDVGVYYCWQGTHFPYTFGGGTKVEIKR
B10: HC5 LC1 (antibody, V domains shown)
VH: EVQLVESGGGLVQPGGSLRLSCAASGFDFSRYWMSWVRQAPGKGLEWVSEIHPYSSTINYTPSVKDRFTISRDNAKNSLYLQMNSLRAEDTAVYYCARAFAYWGQGTLVTVSA
VL: DVVMTQSPLSLPVTLGQPASISCKSSQSLLDSDGKTYLNWFQQRPGQSPRRLIYLVSKLDSGVPDRFSGSGSGTDFTLKISRVEAEDVGVYYCWQGTHFPYTFGGGTKVEIKR
B11: HC1 LC1 (antibody, V domains shown)
VH: EVQLLESGGGLVKPGGSLRLSCAASGFDFSRYWMSWIRQAPGKGLEWVSEIHPYSSTINYTPSVKDRFTISRDNAKNSLYLQMNSLRAEDTAVYYCARAFAYWGQGTLVTVSS
VL: DVVMTQSPLSLPVTLGQPASISCKSSQSLLDSDGKTYLNWFQQRPGQSPRRLIYLVSKLDSGVPDRFSGSGSGTDFTLKISRVEAEDVGVYYCWQGTHFPYTFGGGTKVEIKR

Biological target: T1, human VEGF-A165b
Experiment: BLI 25C
B1 gave a Kd of 0.3 nM.
In the case of B2, the Kd is reported as 1.5 nM.
B3 was tested, and the Kd was 0.6 nM.
B4 gave a Kd of 2.1 nM.
For B5, the Kd was 1.17 nM.
For B6, the Kd was 3.6 nM.
B7 showed a Kd of 0.6 nM.
B8 gave a Kd of 4.4 nM.
Work on B9 yielded a Kd of 0.9 nM.
Work on B10 yielded a Kd of 3.2 nM.
With B11 the Kd was 5 nM.
